In one assay the target is T1, mouse GLUT1 (mmGLUT1) (mouse, UniProt P17809 1-492).
T1 construct: whole, on cells
T1 sequence (looked up): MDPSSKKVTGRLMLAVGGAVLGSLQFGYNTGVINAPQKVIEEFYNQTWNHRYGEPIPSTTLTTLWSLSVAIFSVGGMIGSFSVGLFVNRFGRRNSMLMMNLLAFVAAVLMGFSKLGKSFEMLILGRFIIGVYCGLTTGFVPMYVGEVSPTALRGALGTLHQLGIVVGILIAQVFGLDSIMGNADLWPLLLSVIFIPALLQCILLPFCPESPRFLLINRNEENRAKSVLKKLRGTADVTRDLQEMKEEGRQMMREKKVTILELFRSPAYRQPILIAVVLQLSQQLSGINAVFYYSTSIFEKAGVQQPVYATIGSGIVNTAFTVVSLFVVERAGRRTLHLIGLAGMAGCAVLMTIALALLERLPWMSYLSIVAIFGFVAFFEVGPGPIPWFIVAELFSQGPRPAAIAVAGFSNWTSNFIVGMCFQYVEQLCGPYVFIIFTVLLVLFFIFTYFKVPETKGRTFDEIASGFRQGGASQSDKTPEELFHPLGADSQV
As to the kind of experiment: flow cytometry, permeabilized transfected HEK-293T. As to the method: (§1) HEK-293T cells were transfected by CaPO₄ with plasmids in 6-well culture plates (Falcon) at 750,000 cells/well. At 48 hours post transfection, cells were stained with anti-V5 and anti-GLUT4 MAbs (purified scFv, 2 μg/ml) followed by biotinylated goat anti-mouse or human antibody (1:500) and streptavidin-PerCP (1:500). Fluorescence was detected using an Intellicyt high-throughput flow cytometer (HTFC; Intellicyt, Albuquerque, N. Mex.). For cell permeabilization, cells were treated with saponin at 0.1% in PBS for 20 minutes. To discriminate intact (live) and permeabilized (dead) cells without the use of detergent, propidium iodide (PI) was added to HEK-293T cells at 1 ug/ml just prior to flow cytometry. Where indicated, cytochalasin B (Sigma) was used at a final concentration of 10 uM and phloretin (Sigma) was used at a final concentration of 100 uM, each added in 10% NGS for 30 minutes prior to antibody staining as well as included with the primary antibody.

In a further assay the target is T2, human GLUT1 (hsGLUT1) (human, UniProt P11166 1-492).
T2 construct: whole, on cells
T2 sequence (looked up): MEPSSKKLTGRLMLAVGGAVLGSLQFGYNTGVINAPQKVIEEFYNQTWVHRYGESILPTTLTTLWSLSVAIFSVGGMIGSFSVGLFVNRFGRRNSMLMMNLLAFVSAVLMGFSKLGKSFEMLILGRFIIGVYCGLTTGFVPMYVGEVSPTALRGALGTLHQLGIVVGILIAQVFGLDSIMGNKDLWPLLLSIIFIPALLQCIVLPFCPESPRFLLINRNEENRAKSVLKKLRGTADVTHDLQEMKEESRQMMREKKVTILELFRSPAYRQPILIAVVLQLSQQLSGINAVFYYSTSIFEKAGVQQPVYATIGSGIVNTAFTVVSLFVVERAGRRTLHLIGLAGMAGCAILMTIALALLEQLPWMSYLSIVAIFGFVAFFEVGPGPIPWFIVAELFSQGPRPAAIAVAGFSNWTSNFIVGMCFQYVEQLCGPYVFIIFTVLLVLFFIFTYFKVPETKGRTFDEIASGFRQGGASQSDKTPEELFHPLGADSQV
Put plainly: flow cytometry, permeabilized transfected HEK-293T. The protocol: as §1

Another assay has as its target T3, hsGLUT4 P66A (human, UniProt P14672 1-509).
T3 sequence: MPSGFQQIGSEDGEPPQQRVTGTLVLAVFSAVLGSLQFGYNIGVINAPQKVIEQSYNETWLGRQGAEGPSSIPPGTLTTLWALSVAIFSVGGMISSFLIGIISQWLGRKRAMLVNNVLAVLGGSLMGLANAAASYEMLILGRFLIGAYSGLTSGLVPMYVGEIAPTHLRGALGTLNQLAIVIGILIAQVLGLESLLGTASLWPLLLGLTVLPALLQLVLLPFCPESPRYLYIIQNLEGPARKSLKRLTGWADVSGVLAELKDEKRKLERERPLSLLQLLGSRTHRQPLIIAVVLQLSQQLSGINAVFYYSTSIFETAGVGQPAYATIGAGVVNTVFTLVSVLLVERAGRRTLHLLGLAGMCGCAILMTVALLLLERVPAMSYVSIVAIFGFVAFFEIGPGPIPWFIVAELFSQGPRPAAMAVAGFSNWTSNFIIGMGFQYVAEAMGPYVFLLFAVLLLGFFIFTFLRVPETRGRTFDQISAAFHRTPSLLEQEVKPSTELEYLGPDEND
As to the kind of experiment: flow cytometry, alanine-scan library in HEK-293T, with cytochalasin B. As to the method: (§2) Because of the state-dependence of the isolated MAbs, we next wished to understand the mechanism by which each MAb could recognize GLUT4 in its different conformations. The residues required for binding of each MAb were determined using shotgun mutagenesis comprehensive alanine scanning (Davidson E & Doranz B J (2014) A High-Throughput Shotgun Mutagenesis Approach to Mapping B-cell Antibody Epitopes. Immunology, which is hereby incorporated by reference in its entirety). All residues of hsGLUT4 were individually mutated to alanine, with existing alanines changed to serines. Mutations were obtained for 508 of the 509 residues of GLUT4 (excluding the initiating methionine). The entire mutation library was transfected into human HEK-293T cells in a 384-well array format (one clone per well) and assessed for immunoreactivity using high-throughput flow cytometry.
as §1

For a further assay, the target named is T4, hsGLUT4 N304A (human, UniProt P14672 1-509).
T4 sequence: T3 sequence with A66P, N304A
The description is as above. As to the method:
as §2, §1

Changes are numbered by the printed parent chain.

B1: AB102 (Fc fusion)
scFv: ALTQPSSVSANLGGTVKITCSGGGSYGYGWYQQKSPGSAPVTVIYSNDQRPSDIPSRFSGSKSGSTATLTITGVRAEDEAIYYCGSTDSDYVGIFGAGTTLTVLGQSSRSSGGGGSSGGGGSAVTLDESGGGLQTPGGTLSLVCKASGFDFSSYATIWVRQAPGKGLEWVAGISGTGTGSSTGYAPAVKGRATISRDNGQSTVRLQLNNLRAEDTGSYFCAKSTGYGDSWIYPDSIDAWGHGTEVIVSS
notes: also called MAb AB102; not shown: Fc fragment of human IgG1, cloned in frame with the scFv
As for B1, the binding result with mouse GLUT1 (mmGLUT1) and in the assay with human GLUT1 (hsGLUT1) was “binds” in each case. Further, the “% of binding to wild type GLUT4” value came to 97% with hsGLUT4 P66A and 112% with hsGLUT4 N304A.

Source of the values: patent US20210238276A1 (INTEGRAL MOLECULAR, published 2021).
